Laboratory results taken from the DeepSol protein solubility set.

Assay: soluble on expression in E. coli; label from the status in PepcDB or PDB records

| Sequence | soluble on expression in E. coli |
| --- | --- |
| MKPYLEEKLEGARKSVPGFALEELKQKIISSPIQFGKSDIDDLVSNLLKRYEQTKENSLIGKIDSIFKEISDIEKVMSAKQPEPAQQQAPVEKPKKKAKLEVIGDDVVSIMVSLRWLEFLLDNYGPENTLDVLDYYESLGWISATVKEQMMKYAKMTGVMNPAQEYKIKPSIQDHIINMLFIEKLRGEEINRDLIEALEREFRTIRKGVDELYGI | soluble |
| MKPYYVTTAIAYPNAAPHVGHAYEYIATDAIARFKRLDRYDVRFLTGTDEHGLKVAQAAAAAGVPTAALARRNSDVFQRMQEALNISFDRFIRTTDADHHEASKELWRRMSAAGDIYLDNYSGWYSVRDERFFVESETQLVDGTRLTVETGTPVTWTEEQTYFFRLSAYTDKLLAHYHANPDFIAPETRRNEVISFVSGGLDDLSISRTSFDWGVQVPEHPDHVMYVWVDALTNYLTGAGFPDTDSELFRRYWPADLHMIGKDIIRFHAVYWPAFLMSAGIELPRRIFAHGFLHNRGEKMSKSVGNIVDPVALAEALGVDQVRYFLLREVPFGQDGSYSDEAIVTRINTDLANELGNLAQRSLSMVAKNLDGRVPNPGEFADADAALLATADGLLERVRGHFDAQAMHLALEAIWLMLGDANKYFSVQQPWVLRKSESEADQARFRTTLYVTCEVVRIAALLIQPVMPESAGKILDLLGQAPNQRSFAAVGVRLTPGTALPPPTGVFPRYQPPQPPEGK | not soluble |
| MKQSIVSLAQVIRSKNAGPYELVLDILFKTKENYERVKSSGQLTPELIARLYHVEPDFIHRIVWFDPSNAVKIVMPRDIISGNVGDNDVYGAQQHAPLLNMSFDL | soluble |
| MKQWADDENLPMERYKNYQMIVPAFIIKDILDGKIPETFEDSKNIKMIEASWGEESYTKGHIPTSVHVNTDIIEPPPTWMLDNDDNLTKFALDYGLTKDDTVIVSSSTPMASYRLAVILRYIGVKDVRVLNGGTNSWLSAGYELEFISNPKLEHHHHHH | not soluble |
| MKRDGHTHTEFCPHGTHDDVEEMILKAIELDFDEYSIVEHAPLSSEFMKNTAGNQEAVTTASMSMSDLPYYFKKMNQMKKKYASDLLIHIGFEVDYLIGYEDFTRDFLNEYGPQTDDGVLSLHFLEGQGGFRSIDFTAEDYNEGIVQFYGGFEQAQLVYLAGVKQSIEADLGAFKPRRIGHISLCQKFQQFFGADGRDFTAEVIAEFEAILALVKKRGYELDFNTAGLFKPLCKETYPPKEIVTLARALEIPFVYGSDSHGVADIGRGYNTYCQKLEHHHHHH | soluble |
| MKREEIADLMAFVVVAEERSFTRAAARLSMVQSALSQIVRRIEERLGLRLLTRTTRSVVPTEAGEHLLSVLGPILHDIDSALTSLSDLQNRPSGTIRITTVEHAAKTILLPAMRTFLKSHPEIDIQLTIDYGLTDVVSERFDAGVLRCTGNSGYYHLFFF | not soluble |
| MKRFDLRPLKAGIFERLEELIEKEMQPNEVAIFMFEVGDFSNIPKSAEFIQSKGHELLNSLRFNQADWTIVVRKKA | not soluble |
| MKRGDIAHGLRLSGFKSLFPFSLHWCHTASKSVNCTWHQHEDHLELQYASTVMRFDYVWLRDHCRSASCYNSKTHQRSLDTASVDLCIKPKTIRLDESTLFFTWPDGHVTRYDLDWLVKNSYEGQKQEVIQPRVLWNAKLYQDAQLPSVDFQGFLETKEGLKKFLQNFLLYGIAFVENVPPTQEHTEKLARRVSLIRETIYGRMWYFTSDFSRGDTAYTKLALDRHTDTTYFQEPCGIQVFHCLKHEGTGGRTLLVDGFYAAQQVLQRAPEEFDLLSQVPLKHEYIENVGQCHNHMIGVGPILNIYPWNKELYLIRYNNYDRAVINTVPYDVVRRWYAAHRTLTTELRRPENELWVKLKPGKVLFIDNWRVLHGRESFTGYRQLCGCYLTRDDVLNTARILGLHA | not soluble |
| MKRHFETTRRIVIKVGTSSLVQTSGKINLSKIDHLAFVISSLMNRGMEVILVSSGAMGFGLDILKMDKRPQEISQQQAVSSVGQVAMMSLYSQIFSHYQTHVSQILLTRDVVVFPESLQNVTNSFESLLSMGILPIVNENDAVSVDEMDHKTKFGDNDRLSAVVAKITKADLLIMLSDIDGLFDKNPNIYDDAVLRSHVSEITDDIIKSAGGAGSKFGTGGMLSKIKSAQMVFDNNGQMILMNGANPRDILKVLDGHNIGTYFAQGKLEHHHHHH | not soluble |
| MKRILLSLLAMATLVGCGSKDDNNPTPPQRPDFTKEQQNYLPTKKVKHVTATYVEADYENGSYPSVQYKDFLNPELNQGQKFTVKTMEYFYEYDNAGRITKVTFKREGDSDIVSTLTYSNISVTITSPPPYDGIREPRSIEYGLNSSGNILSLGVYNEKQQLKNSMSAGTFTWENDNLTKISRKVTRNGVVKERGVKFSYNSATNKNKFYLLDHTGDDIRSYQEYFALSIAIIKGAAPKNLPIEATPLEENDSYSSRFERPVSFSYTFDGDEFVKTITEKENKFVPGSLYSYVPNNGNNEIGTYWNELQTLIANIENKTVTNKSYKLISDDGSTRIFEITVPVKVEKDSNGKTINLNVNKVCKFTVSYNNTSATDIRMEATYYADIITNYELNY | not soluble |
| MKRISYIEDFEQWESGFSFYNPVKVRFGEVDMFGHVNNVVAFTYFEEARIALFKELGFMQEWTHASSETMIVVADLQCNFIKQIYFDEQLKVYVKAGSVGNSSLDLHYMVKNAEGEICLVGRGMMVQASKKTGRGEPWPEEWKKKLLQ | soluble |
| MKRKKPTIHDVAAKAGVGLGTVSRVLNDHPAVRHETRARVLRAMEELGYAPNPHARRIAGGRSYTVSVLLPFVATEFYRRLVEGIEGVLLEQRYDLALFPILSLARLKRYLENTTLAYLTDGLILASYDLTERFEEGRLPTERPVVLVDAQNPRYDSVYLDNRLGGRLAGAYLARFPGPIFAIAVEEEPDRAFRRTVFAERMAGFQEALKEAGRPFSPDRLYITRHSQEGGRLALRHFLEKASPPLNVFAGADQV | soluble |
| MKRLLLTLTFPLFFVGCASQNPTHMAFSPQVPDISQQTSRPVQISLDTIDSRNAEYVARFMEEGTKTRLVGPSEPPKLLLDEVFRNGFTQAGYQIDPSATNSIQVQLEELQMDVTKKTFGYEAKHSVRIAVQARNSSQELVKRYKAKGVLKGPLTPDFATLEMDMNKLLGQLTGEILNDPELNQFLQK | soluble |
| MKRLWQHCHAATLKGGKYSIVEDAALVTDGPLIHWIGPRAELPPGDYAERIDLGGAWLTPGLIDCHTHAVFGGNRSGEFEQRLEGVSYAEIAAAGGGIASTVRATREASEEELLASARKRLEPLLRDGVTALEIKSGYGLDLASERKMLRVIRRLGERLPATVRSTCLAAHALPPEYAGRADDYIEHICSTMLPALAGEGLVDAVDAFCEHLAFSPAQVERVFIAARELGLPVKLHAEQLSSLHGSSLAARYRALSADHLEYMTEDDARAMGEAGTVAVLLPGAFYLLRETQLPPIDALRRHGVAMAIASDLNPGTSPALSLRLMLNMACTLFRLTPEETLAGVTLHAARALGLEASHGSLEVGKLADFVAWDIERPAELAYWLGGDLPKRVIRHAEEVYRG | not soluble |
| MKRVEDWIKQAERDLEEARYAKSGGYYELACFLSQQCAEKAVKGLLQFQGIEKRGHSISHLLTNPPADILQCATFLDKQYTPSRYPDVYYEGAPYEYYTERDADECINCAIRILNWVKGQIK | soluble |
| MKRVGKQTWVFDEDIYIRAAATAVGPLEADGPLGGYFDIWHRDLYCGEETWELAERRLMSEAVARCLQKAGVSAHDVDLFLAGDLLNQNATSNYVARELPIPFLCLFGACSTSMQTLAAAAAFVAGGLADTALVATSSHNATAERQFRYPTELGVQKPKTATFTVTGAGAALVGRTPGRWRIRAATIGKVIDAGLTNPLDMGAAMAPAAADTIEQHFRDLGTSPSDYDLIVTGDLSRVGSVIVRELLAESGYDISDVYNDCGLMIYRPDQKVFAGGSGCACSAVVTYGYLFHELDRGTFHRLFVVATGALLSQTMVQQKQSIPAVAHGVVIEAAKLEHHHHHH | not soluble |
| MKSDDLERLEESQEMQQLIHAAKEQYEQEKSVHPPVAYAAFAQNLRERQKDGKMKAKQEPPERETFEVKGGKRSGISPWWLVAACLLGGIIGYGISTTSDRQEAGLERLAVADTVIVVRERVDTVYREVEVPSQPLVASRSTVKSKSTGLTKEHVKQSRKAVQKAEPAFISIEFLQQQQNLPDPNSECYAANGMTVAEGNYPFHLLATVPCK | not soluble |
